Reference: publication doi:10.1101/208041

T1: dMpAgo (catalytically inactive MpAgo) (Marinitoga piezophila, UniProt H2J4R4 1-639, D446A)
T1 sequence: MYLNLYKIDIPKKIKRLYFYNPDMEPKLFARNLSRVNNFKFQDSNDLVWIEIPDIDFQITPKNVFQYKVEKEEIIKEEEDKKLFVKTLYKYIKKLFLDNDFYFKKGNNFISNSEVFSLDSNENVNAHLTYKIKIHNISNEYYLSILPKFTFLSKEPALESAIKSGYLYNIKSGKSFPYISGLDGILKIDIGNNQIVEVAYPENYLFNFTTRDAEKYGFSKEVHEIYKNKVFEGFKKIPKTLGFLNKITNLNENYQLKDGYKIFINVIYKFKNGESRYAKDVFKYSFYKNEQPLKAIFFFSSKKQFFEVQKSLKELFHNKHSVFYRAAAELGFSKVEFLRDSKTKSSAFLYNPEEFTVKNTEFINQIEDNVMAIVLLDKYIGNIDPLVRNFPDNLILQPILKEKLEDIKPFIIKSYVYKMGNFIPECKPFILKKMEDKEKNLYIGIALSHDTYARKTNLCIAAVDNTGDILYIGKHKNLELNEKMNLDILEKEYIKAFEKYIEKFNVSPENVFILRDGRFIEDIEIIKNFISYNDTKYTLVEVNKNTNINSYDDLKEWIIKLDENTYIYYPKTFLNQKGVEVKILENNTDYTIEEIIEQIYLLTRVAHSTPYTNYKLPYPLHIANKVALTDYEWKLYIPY

T2: dMpAgo (catalytically inactive MpAgo) D446A (Marinitoga piezophila) (UniProt H2J4R4)
T2 sequence: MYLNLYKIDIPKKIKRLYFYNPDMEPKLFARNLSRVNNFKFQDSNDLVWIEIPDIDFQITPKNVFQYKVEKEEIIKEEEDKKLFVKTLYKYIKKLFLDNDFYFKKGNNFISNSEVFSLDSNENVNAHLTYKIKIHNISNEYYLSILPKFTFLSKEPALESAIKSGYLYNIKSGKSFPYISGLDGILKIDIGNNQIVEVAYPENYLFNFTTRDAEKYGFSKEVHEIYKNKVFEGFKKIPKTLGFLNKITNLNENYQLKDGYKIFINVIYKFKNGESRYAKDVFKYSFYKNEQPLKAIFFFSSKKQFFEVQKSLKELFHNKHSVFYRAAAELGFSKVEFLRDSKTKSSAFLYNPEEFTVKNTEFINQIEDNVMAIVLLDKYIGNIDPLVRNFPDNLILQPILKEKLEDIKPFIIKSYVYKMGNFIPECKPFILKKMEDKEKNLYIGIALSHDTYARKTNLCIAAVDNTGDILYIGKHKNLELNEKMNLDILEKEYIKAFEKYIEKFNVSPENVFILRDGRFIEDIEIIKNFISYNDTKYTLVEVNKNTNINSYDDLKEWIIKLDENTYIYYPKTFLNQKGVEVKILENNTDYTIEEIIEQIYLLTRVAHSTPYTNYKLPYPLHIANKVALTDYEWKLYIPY

T3: MpAgo WT (Marinitoga piezophila, UniProt H2J4R4 1-639)
T3 sequence: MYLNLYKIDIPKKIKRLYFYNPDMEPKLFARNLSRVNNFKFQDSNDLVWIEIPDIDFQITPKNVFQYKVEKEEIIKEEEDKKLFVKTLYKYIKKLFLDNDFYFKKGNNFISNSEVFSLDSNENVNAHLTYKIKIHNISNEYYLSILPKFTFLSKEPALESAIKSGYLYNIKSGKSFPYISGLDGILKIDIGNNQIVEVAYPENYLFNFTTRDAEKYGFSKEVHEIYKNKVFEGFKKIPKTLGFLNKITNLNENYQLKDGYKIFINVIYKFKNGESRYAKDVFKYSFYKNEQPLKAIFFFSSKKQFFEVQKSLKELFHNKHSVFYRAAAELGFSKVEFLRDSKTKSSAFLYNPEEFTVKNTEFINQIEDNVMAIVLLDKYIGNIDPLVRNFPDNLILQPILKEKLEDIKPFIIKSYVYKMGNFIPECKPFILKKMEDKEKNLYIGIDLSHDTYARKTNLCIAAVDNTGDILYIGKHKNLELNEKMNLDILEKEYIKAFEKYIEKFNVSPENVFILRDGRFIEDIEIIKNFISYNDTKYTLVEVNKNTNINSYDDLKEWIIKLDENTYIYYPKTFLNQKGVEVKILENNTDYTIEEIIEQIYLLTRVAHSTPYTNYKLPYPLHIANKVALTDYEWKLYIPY

B1: BrdU guide / 18-nt target (mixed)
RNA 1: UAUACAACCUACUACCUCAUU
RNA 2: GGACUAUGUAGAUCUAUAAUUAGAGGUAGUAGGUUGUAUCUCAGGAGGUC
modifications: BrdU at guide 1
B2: BrdU guide / 15-nt target (mixed)
RNA 1: UAUACAACCUACUACCUCAUU
RNA 2: GGACUAUGUAGAUCUAUAAUUACUCGUAGUAGGUUGUAUCUCAGGAGGUC
modifications: BrdU at guide 1
B3: rA guide / ON target (mixed)
RNA 1: AAUACAACCUACUACCUCAUU
RNA 2: GGACUAUGAUCUAGAUAUUAAUGAGGUAGUAGGUUGUAUCUCAGGAGGUC
B4: rC guide / ON target (mixed)
RNA 1: CAUACAACCUACUACCUCAUU
RNA 2: GGACUAUGAUCUAGAUAUUAAUGAGGUAGUAGGUUGUAUCUCAGGAGGUC
B5: dU guide / ON target (mixed)
RNA 1: UAUACAACCUACUACCUCAUU
RNA 2: GGACUAUGAUCUAGAUAUUAAUGAGGUAGUAGGUUGUAUCUCAGGAGGUC
modifications: dU at guide 1
B6: rU guide / ON target (mixed)
RNA 1: UAUACAACCUACUACCUCAUU
RNA 2: GGACUAUGAUCUAGAUAUUAAUGAGGUAGUAGGUUGUAUCUCAGGAGGUC
B7: rA guide / OFF target (mixed)
RNA 1: AAUACAACCUACUACCUCAUU
RNA 2: GUUAUGUGUGUGAUUAUAUUUGUUCCAGUUCCUGUGUAAUAGACAUGGAA
B8: dU guide / OFF target (mixed)
RNA 1: UAUACAACCUACUACCUCAUU
RNA 2: GUUAUGUGUGUGAUUAUAUUUGUUCCAGUUCCUGUGUAAUAGACAUGGAA
modifications: dU at guide 1
B9: rU guide / OFF target (mixed)
RNA 1: UAUACAACCUACUACCUCAUU
RNA 2: GUUAUGUGUGUGAUUAUAUUUGUUCCAGUUCCUGUGUAAUAGACAUGGAA
B10: rC guide / OFF target (mixed)
RNA 1: CAUACAACCUACUACCUCAUU
RNA 2: GUUAUGUGUGUGAUUAUAUUUGUUCCAGUUCCUGUGUAAUAGACAUGGAA
B11: gRNA 5'-rA (ssRNA)
RNA: AAUACAACCUACUACCUCAUU
modifications: 5'-OH
B12: gRNA 5'-rC (ssRNA)
RNA: CAUACAACCUACUACCUCAUU
modifications: 5'-OH
B13: gRNA 5'-rU (ssRNA)
RNA: UAUACAACCUACUACCUCAUU
modifications: 5'-OH
B14: U7 guide / A target (mixed)
RNA 1: UAGCGGUUGCCAUAUCCAACU
RNA 2: GGCAGCAUUCAACCAUAUGGCAACCGCAUACAGCCAAG
modifications: BrdU at guide 1
B15: G7 guide / C target (mixed)
RNA 1: UAGCGGGUGCCAUAUCCAACU
RNA 2: GGCAGCAUUCAACCAUAUGGCACCCGCAUACAGCCAAG
modifications: BrdU at guide 1
B16: U6 guide / A target (mixed)
RNA 1: UGCGGUUGCCAUAUGCAACUU
RNA 2: GGCAGCAUUCAACCAUAUGGCAACCGCAUACAGCCAAG
modifications: BrdU at guide 1
B17: A7 guide / U target (mixed)
RNA 1: UAGCGGAUGCCAUAUCCAACU
RNA 2: GGCAGCAUUCAACCAUAUGGCAUCCGCAUACAGCCAAG
modifications: BrdU at guide 1
B18: C7 guide / G target (mixed)
RNA 1: UAGCGGCUGCCAUAUCCAACU
RNA 2: GGCAGCAUUCAACCAUAUGGCAGCCGCAUACAGCCAAG
modifications: BrdU at guide 1
B19: A6 guide / mm4 (mixed)
RNA 1: UGCGGAUGCCAUAUGCAACUU
RNA 2: GGCAGCAUUCAACCAUAUGGCAUCAGCAUACAGCCAAG
modifications: BrdU at guide 1
B20: A6 guide / mm10 (mixed)
RNA 1: UGCGGAUGCCAUAUGCAACUU
RNA 2: GGCAGCAUUCAACCAUAUUGCAUCCGCAUACAGCCAAG
modifications: BrdU at guide 1
B21: A6 guide / mm5 (mixed)
RNA 1: UGCGGAUGCCAUAUGCAACUU
RNA 2: GGCAGCAUUCAACCAUAUGGCAUACGCAUACAGCCAAG
modifications: BrdU at guide 1
B22: A6 guide / mm2 (mixed)
RNA 1: UGCGGAUGCCAUAUGCAACUU
RNA 2: GGCAGCAUUCAACCAUAUGGCAUCCGAAUACAGCCAAG
modifications: BrdU at guide 1
B23: A6 guide / mm3 (mixed)
RNA 1: UGCGGAUGCCAUAUGCAACUU
RNA 2: GGCAGCAUUCAACCAUAUGGCAUCCUCAUACAGCCAAG
modifications: BrdU at guide 1
B24: A6 guide / mm12 (mixed)
RNA 1: UGCGGAUGCCAUAUGCAACUU
RNA 2: GGCAGCAUUCAACCAUCUGGCAUCCGCAUACAGCCAAG
modifications: BrdU at guide 1
B25: A6 guide / mm8 (mixed)
RNA 1: UGCGGAUGCCAUAUGCAACUU
RNA 2: GGCAGCAUUCAACCAUAUGGAAUCCGCAUACAGCCAAG
modifications: BrdU at guide 1
B26: A6 guide / mm7 (mixed)
RNA 1: UGCGGAUGCCAUAUGCAACUU
RNA 2: GGCAGCAUUCAACCAUAUGGCCUCCGCAUACAGCCAAG
modifications: BrdU at guide 1
B27: A6 guide / mm11 (mixed)
RNA 1: UGCGGAUGCCAUAUGCAACUU
RNA 2: GGCAGCAUUCAACCAUAGGGCAUCCGCAUACAGCCAAG
modifications: BrdU at guide 1
B28: A7 guide / mm3 (mixed)
RNA 1: UAGCGGAUGCCAUAUCCAACU
RNA 2: GGCAGCAUUCAACCAUAUGGCAUCCGAAUACAGCCAAG
modifications: BrdU at guide 1
B29: A7 guide / G target (mm7) (mixed)
RNA 1: UAGCGGAUGCCAUAUCCAACU
RNA 2: GGCAGCAUUCAACCAUAUGGCAGCCGCAUACAGCCAAG
modifications: BrdU at guide 1
B30: A7 guide / mm9 (mixed)
RNA 1: UAGCGGAUGCCAUAUCCAACU
RNA 2: GGCAGCAUUCAACCAUAUGGAAUCCGCAUACAGCCAAG
modifications: BrdU at guide 1

target: T1, dMpAgo (catalytically inactive MpAgo); assay: filter binding; conditions: not given

Row | Molecule | Kd
1 | B1 | 0.107 ± 0.006 nM
2 | B2 | 0.083 ± 0.008 nM

target: T2, dMpAgo (catalytically inactive MpAgo) D446A (Marinitoga piezophila); assay: filter binding; conditions: BrdU at guide 1; N = inosine at target 23

Row | Molecule | binding signal
3 | UGCGGAUGCCAUAUGCAACUU / GGCAGCAUUCAACCAUAUGGCANCCGCAUACAGCCAAG [A6 guide / I target] | 19 % bound

same assay, conditions: BrdU at guide 1; internal desthiobiotin-TEG before last AA

Row | Molecule | binding signal (fold Kd vs complementary)
4 | UAUUGUGACAAGAAUGCUGUUAAAAAAAAAAA / GGCAGCAUUCAACAUUCUAGUCACAAUAUACAGCCAAG [32-nt guide / mm10] | > 5
5 | UAUUGUGACAAGAAUGCUGUUAAAAAAAAAAA / GGCAGCAUUCAACAUUGUUGUCACAAUAUACAGCCAAG [32-nt guide / mm12] | > 5

target: T1, dMpAgo (catalytically inactive MpAgo); assay: filter binding; conditions: not given; remark: another data set of the same source

Row | Molecule | Kd | binding result
6 | B3 | 12 ± 2 nM | –
7 | B4 | 4.6 ± 0.5 nM | –
8 | B5 | 0.5 ± 0.067 nM | –
9 | B6 | 5 ± 0.8 nM | –
10 | B7 | 112 ± 19 nM | –
11 | B8 | – | no binding
12 | B9 | 359 ± 37 nM | –
13 | B10 | 112 ± 18 nM | –

target: T3, MpAgo WT; assay: filter binding; conditions: not given

Row | Molecule | Kd
14 | B11 | 73 ± 10 nM
15 | B12 | 104 ± 9 nM
16 | B13 | 81 ± 9 nM

target: T1, dMpAgo (catalytically inactive MpAgo); assay: filter binding; conditions: not given; remark: another data set of the same source

Row | Molecule | binding result
17 | B14 | binds
18 | B15 | binds
19 | B16 | binds
20 | B17 | binds
21 | B18 | binds

target: T1, dMpAgo (catalytically inactive MpAgo); assay: filter binding; conditions: not given; remark: another data set of the same source

Row | Molecule | binding signal
22 | B19 | > 5 fold Kd vs complementary
23 | B20 | > 5 fold Kd vs complementary
24 | B21 | > 5 fold Kd vs complementary
25 | B22 | > 5 fold Kd vs complementary
26 | B23 | > 5 fold Kd vs complementary
27 | B24 | > 5 fold Kd vs complementary
28 | B25 | > 5 fold Kd vs complementary
29 | B26 | > 5 fold Kd vs complementary
30 | B27 | > 5 fold Kd vs complementary

target: T1, dMpAgo (catalytically inactive MpAgo); assay: filter binding; conditions: not given; remark: another data set of the same source

Row | Molecule | binding signal
31 | B28 | 32 fold Kd vs complementary
32 | B29 | 301 fold Kd vs complementary
33 | B30 | 327 fold Kd vs complementary
